Test results reported in article PMC3490968.

Biological target: papain (UniProt P00784)
Test: enzyme inhibition kinetics (fluorogenic substrate, Lineweaver-Burk plot); papain 2 nM, cystatin 40, 60, 80 pM, substrate Z-Phe-Arg-7-amido-4-methylcoumarin 0.3-5 uM; 100 mM sodium phosphate pH 6.3, 10 mM EDTA, 400 mM NaCl, 2 mM dithiothreitol

Chain of UniProt P00784 (P00784 134-345): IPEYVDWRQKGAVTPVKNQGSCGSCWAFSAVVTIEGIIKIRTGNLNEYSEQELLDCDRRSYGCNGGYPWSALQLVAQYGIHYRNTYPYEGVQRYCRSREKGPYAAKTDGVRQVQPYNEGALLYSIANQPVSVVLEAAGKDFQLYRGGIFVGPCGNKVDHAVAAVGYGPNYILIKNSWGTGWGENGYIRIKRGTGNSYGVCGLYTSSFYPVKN

| Substance | Ki |
| --- | --- |
| recombinant pineapple cystatin (AcCYS), residue 1-135 (natural protein) | 200 pM |
| truncated AcCYS (AcCYS_DL), residue 28-135 (domain or fragment) | 140 pM |
